Test results: US20240117018A1

Legend:
Assay in all cases: cell-based or functional assay
[1] = target: HIV-1 Env of pseudovirus 191084 B7-19 (HIV-1)
[2] = target: HIV-1 Env of pseudovirus 191955_A11 (HIV-1)
[3] = target: HIV-1 Env of pseudovirus 211-9 (HIV-1)
[4] = target: HIV-1 Env of pseudovirus 231965.c01 (HIV-1)
[5] = target: HIV-1 Env of pseudovirus 231966.c02 (HIV-1)
[6] = target: HIV-1 Env of pseudovirus 235-47 (HIV-1)
[7] = target: HIV-1 Env of pseudovirus 3016.v5.c45 (HIV-1)
[8] = target: HIV-1 Env of pseudovirus 3103.v3.c10 (HIV-1)
[9] = target: HIV-1 Env of pseudovirus 3301.v1.c24 (HIV-1)
[10] = target: HIV-1 Env of pseudovirus 3817.v2.c59 (HIV-1)
[11] = target: HIV-1 Env of pseudovirus 6041.v3.c23 (HIV-1)
[12] = target: HIV-1 Env of pseudovirus 620345.c01 (HIV-1)
[13] = target: HIV-1 Env of pseudovirus 6480.v4.c25 (HIV-1)
[14] = target: HIV-1 Env of pseudovirus 6540.v4.c1 (HIV-1)
[15] = target: HIV-1 Env of pseudovirus 6545.v4.c1 (HIV-1)
[16] = target: HIV-1 Env of pseudovirus 6811.v7.c18 (HIV-1)
[17] = target: HIV-1 Env of pseudovirus 6952.v1.c20 (HIV-1)
[18] = target: HIV-1 Env of pseudovirus 89-F1_2_25 (HIV-1)
[19] = target: HIV-1 Env of pseudovirus 9004SS_A3_4 (HIV-1)
[20] = target: HIV-1 Env of pseudovirus 928-28 (HIV-1)
[21] = target: HIV-1 Env of pseudovirus BJOX009000.02.4 (HIV-1)
[22] = target: HIV-1 Env of pseudovirus BJOX015000.11.5 (HIV-1)
[23] = target: HIV-1 Env of pseudovirus BJOX025000.01.1 (HIV-1)
[24] = target: HIV-1 Env of pseudovirus BJOX028000.10.3 (HIV-1)
[25] = target: HIV-1 Env of pseudovirus C1080.c03 (HIV-1)
[26] = target: HIV-1 Env of pseudovirus C3347.c11 (HIV-1)
[27] = target: HIV-1 Env of pseudovirus C4118.c09 (HIV-1)
[28] = target: HIV-1 Env of pseudovirus P1981_C5_3 (HIV-1)
[29] = target: HIV-1 Env of pseudovirus R1166.c01 (HIV-1)
[30] = target: HIV-1 Env of pseudovirus R2184.c04 (HIV-1)
[31] = target: HIV-1 Env of pseudovirus T251-18 (HIV-1)
[32] = target: HIV-1 Env of pseudovirus T255-34 (HIV-1)
[33] = target: HIV-1 Env of pseudovirus T257-31 (HIV-1)
[34] = target: HIV-1 Env of pseudovirus X1193_c1 (HIV-1)
[35] = target: HIV-1 Env of pseudovirus X1632_S2_B10 (HIV-1)
[36] = target: HIV-1 Env of pseudovirus X2131_C1_B5 (HIV-1)

N49P7 (antibody)
IC50 [1]: 0.047 µg/mL
IC80 [1]: 0.142 µg/mL
MPI [1]: 100
IC50 [2]: 1.81 µg/mL
IC80 [2]: 8.87 µg/mL
MPI [2]: 99
IC50 [3]: 0.22 µg/mL
IC80 [3]: 0.767 µg/mL
MPI [3]: 100
IC50 (neutralisation, TZM.bl cells) [4]: 0.054 µg/mL
IC80 (neutralisation, TZM.bl cells) [4]: 0.193 µg/mL
MPI [4]: 100
IC50 (neutralisation, TZM.bl cells) [5]: 0.102 µg/mL
IC80 (neutralisation, TZM.bl cells) [5]: 0.43 µg/mL
MPI [5]: 100
IC50 [6]: 0.045 µg/mL
IC80 [6]: 0.3 µg/mL
MPI [6]: 99
IC50 (neutralisation, TZM.bl cells) [7]: 0.221 µg/mL
IC80 (neutralisation, TZM.bl cells) [7]: 1.04 µg/mL
MPI [7]: 100
IC50 (neutralisation, TZM.bl cells) [8]: 0.158 µg/mL
IC80 (neutralisation, TZM.bl cells) [8]: 0.509 µg/mL
MPI [8]: 100
IC50 (neutralisation, TZM.bl cells) [9]: 0.025 µg/mL
IC80 (neutralisation, TZM.bl cells) [9]: 0.069 µg/mL
MPI [9]: 100
IC50 (neutralisation, TZM.bl cells) [10]: 0.716 µg/mL
IC80 (neutralisation, TZM.bl cells) [10]: 3.73 µg/mL
MPI [10]: 99
IC50 (neutralisation, TZM.bl cells) [11]: 0.047 µg/mL
IC80 (neutralisation, TZM.bl cells) [11]: 0.222 µg/mL
MPI [11]: 100
IC50 [12]: 23.2 µg/mL
IC80 [12]: 47.9 µg/mL
MPI [12]: 82
IC50 (neutralisation, TZM.bl cells) [13]: 0.031 µg/mL
IC80 (neutralisation, TZM.bl cells) [13]: 0.113 µg/mL
MPI [13]: 100
IC50 (neutralisation, TZM.bl cells) [14]: 11.7 µg/mL
IC80 (neutralisation, TZM.bl cells) [14]: 33.2 µg/mL
MPI [14]: 92
IC50 (neutralisation, TZM.bl cells) [15]: 2 µg/mL
IC80 (neutralisation, TZM.bl cells) [15]: 14.7 µg/mL
MPI [15]: 96
IC50 (neutralisation, TZM.bl cells) [16]: 0.229 µg/mL
IC80 (neutralisation, TZM.bl cells) [16]: 0.992 µg/mL
MPI [16]: 100
IC50 (neutralisation, TZM.bl cells) [17]: 18.4 µg/mL
IC80 (neutralisation, TZM.bl cells) [17]: 38.9 µg/mL
MPI [17]: 91
IC50 (neutralisation, TZM.bl cells) [18]: 21.6 µg/mL
IC80 (neutralisation, TZM.bl cells) [18]: > 50 µg/mL
MPI [18]: 80
IC50 [19]: 0.125 µg/mL
IC80 [19]: 0.39 µg/mL
MPI [19]: 100
IC50 [20]: 0.167 µg/mL
IC80 [20]: 0.579 µg/mL
MPI [20]: 100
IC50 [21]: 0.113 µg/mL
IC80 [21]: 0.506 µg/mL
MPI [21]: 100
IC50 [22]: 0.036 µg/mL
IC80 [22]: 0.157 µg/mL
MPI [22]: 100
IC50 [23]: 0.038 µg/mL
IC80 [23]: 0.236 µg/mL
MPI [23]: 100
IC50 [24]: 0.02 µg/mL
IC80 [24]: 0.123 µg/mL
MPI [24]: 100
IC50 [25]: 0.114 µg/mL
IC80 [25]: 0.765 µg/mL
MPI [25]: 100
IC50 [26]: 0.024 µg/mL
IC80 [26]: 0.067 µg/mL
MPI [26]: 100
IC50 [27]: 0.043 µg/mL
IC80 [27]: 0.147 µg/mL
MPI [27]: 100
IC50 (neutralisation, TZM.bl cells) [28]: 0.113 µg/mL
IC80 (neutralisation, TZM.bl cells) [28]: 0.274 µg/mL
MPI [28]: 100
IC50 [29]: 0.092 µg/mL
IC80 [29]: 0.313 µg/mL
MPI [29]: 100
IC50 [30]: 0.011 µg/mL
IC80 [30]: 0.031 µg/mL
MPI [30]: 100
IC50 [31]: 0.178 µg/mL
IC80 [31]: 0.62 µg/mL
MPI [31]: 100
IC50 [32]: 0.053 µg/mL
IC80 [32]: 0.262 µg/mL
MPI [32]: 100
IC50 [33]: 0.158 µg/mL
IC80 [33]: 0.619 µg/mL
MPI [33]: 100
IC50 [34]: 0.016 µg/mL
IC80 [34]: 0.06 µg/mL
MPI [34]: 100
IC50 (neutralisation, TZM.bl cells) [35]: 12 µg/mL
IC80 (neutralisation, TZM.bl cells) [35]: 40.4 µg/mL
MPI [35]: 85
IC50 (neutralisation, TZM.bl cells) [36]: 0.081 µg/mL
IC80 (neutralisation, TZM.bl cells) [36]: 0.273 µg/mL
MPI [36]: 100

N49P7.1 (antibody)
IC50 [1]: 0.069 µg/mL
IC80 [1]: 0.2 µg/mL
MPI [1]: 100
IC50 [2]: 1.99 µg/mL
IC80 [2]: 10.1 µg/mL
MPI [2]: 98
IC50 [3]: 0.34 µg/mL
IC80 [3]: 1.17 µg/mL
MPI [3]: 100
IC50 (neutralisation, TZM.bl cells) [4]: 0.106 µg/mL
IC80 (neutralisation, TZM.bl cells) [4]: 0.364 µg/mL
MPI [4]: 100
IC50 (neutralisation, TZM.bl cells) [5]: 0.203 µg/mL
IC80 (neutralisation, TZM.bl cells) [5]: 0.705 µg/mL
MPI [5]: 100
IC50 [6]: 0.078 µg/mL
IC80 [6]: 0.419 µg/mL
MPI [6]: 97
IC50 (neutralisation, TZM.bl cells) [7]: 0.559 µg/mL
IC80 (neutralisation, TZM.bl cells) [7]: 2.54 µg/mL
MPI [7]: 100
IC50 (neutralisation, TZM.bl cells) [8]: 0.229 µg/mL
IC80 (neutralisation, TZM.bl cells) [8]: 0.772 µg/mL
MPI [8]: 100
IC50 (neutralisation, TZM.bl cells) [9]: 0.041 µg/mL
IC80 (neutralisation, TZM.bl cells) [9]: 0.111 µg/mL
MPI [9]: 100
IC50 (neutralisation, TZM.bl cells) [10]: 1.48 µg/mL
IC80 (neutralisation, TZM.bl cells) [10]: 8.36 µg/mL
MPI [10]: 97
IC50 (neutralisation, TZM.bl cells) [11]: 0.078 µg/mL
IC80 (neutralisation, TZM.bl cells) [11]: 0.366 µg/mL
MPI [11]: 100
IC50 [12]: > 50 µg/mL
IC80 [12]: > 50 µg/mL
MPI [12]: 47
IC50 (neutralisation, TZM.bl cells) [13]: 0.056 µg/mL
IC80 (neutralisation, TZM.bl cells) [13]: 0.192 µg/mL
MPI [13]: 100
IC50 (neutralisation, TZM.bl cells) [14]: 14.7 µg/mL
IC80 (neutralisation, TZM.bl cells) [14]: > 50 µg/mL
MPI [14]: 75
IC50 (neutralisation, TZM.bl cells) [15]: 1.15 µg/mL
IC80 (neutralisation, TZM.bl cells) [15]: 16 µg/mL
MPI [15]: 92
IC50 (neutralisation, TZM.bl cells) [16]: 0.321 µg/mL
IC80 (neutralisation, TZM.bl cells) [16]: 1.46 µg/mL
MPI [16]: 100
IC50 (neutralisation, TZM.bl cells) [17]: 26.3 µg/mL
IC80 (neutralisation, TZM.bl cells) [17]: > 50 µg/mL
MPI [17]: 71
IC50 (neutralisation, TZM.bl cells) [18]: 41.6 µg/mL
IC80 (neutralisation, TZM.bl cells) [18]: > 50 µg/mL
MPI [18]: 58
IC50 [19]: 0.221 µg/mL
IC80 [19]: 0.841 µg/mL
MPI [19]: 100
IC50 [20]: 0.23 µg/mL
IC80 [20]: 0.775 µg/mL
MPI [20]: 100
IC50 [21]: 0.219 µg/mL
IC80 [21]: 0.756 µg/mL
MPI [21]: 100
IC50 [22]: 0.111 µg/mL
IC80 [22]: 0.487 µg/mL
MPI [22]: 100
IC50 [23]: 0.057 µg/mL
IC80 [23]: 0.378 µg/mL
MPI [23]: 100
IC50 [24]: 0.031 µg/mL
IC80 [24]: 0.29 µg/mL
MPI [24]: 100
IC50 [25]: 0.144 µg/mL
IC80 [25]: 1.05 µg/mL
MPI [25]: 100
IC50 [26]: 0.048 µg/mL
IC80 [26]: 0.161 µg/mL
MPI [26]: 100
IC50 [27]: 0.048 µg/mL
IC80 [27]: 0.216 µg/mL
MPI [27]: 100
IC50 (neutralisation, TZM.bl cells) [28]: 0.216 µg/mL
IC80 (neutralisation, TZM.bl cells) [28]: 0.494 µg/mL
MPI [28]: 100
IC50 [29]: 0.136 µg/mL
IC80 [29]: 0.461 µg/mL
MPI [29]: 100
IC50 [30]: 0.018 µg/mL
IC80 [30]: 0.04 µg/mL
MPI [30]: 100
IC50 [31]: 0.229 µg/mL
IC80 [31]: 0.794 µg/mL
MPI [31]: 100
IC50 [32]: 0.094 µg/mL
IC80 [32]: 0.447 µg/mL
MPI [32]: 100
IC50 [33]: 0.209 µg/mL
IC80 [33]: 1.04 µg/mL
MPI [33]: 100
IC50 [34]: 0.035 µg/mL
IC80 [34]: 0.144 µg/mL
MPI [34]: 100
IC50 (neutralisation, TZM.bl cells) [35]: 17.9 µg/mL
IC80 (neutralisation, TZM.bl cells) [35]: > 50 µg/mL
MPI [35]: 65
IC50 (neutralisation, TZM.bl cells) [36]: 0.129 µg/mL
IC80 (neutralisation, TZM.bl cells) [36]: 0.431 µg/mL
MPI [36]: 100
